Laboratory results reported in patent publication US20160215026A1.

What was measured:
[1] = molecular target: human immunoglobulin G drug separated from human plasma (human); test: SPR, Biacore 3000, human IgG immobilized on CM5, peptide as analyte, 25 C, pH 7.4, 1:1 model
[2] = molecular target: human immunoglobulin G drug separated from human plasma (human); test: SPR, Biacore 3000, human IgG immobilized; reference C-G29A/S33E.1d

Substance	Ka [1]	koff [1]	kon [1]	affinity constant KA relative to C-G29A/S33E.1d [2]
C-G29A/S33E/K7E/A46E.1d (designed binder)	3.9e+07 M⁻¹	0.00709 s⁻¹	276000 M⁻¹ s⁻¹	
C-G29A/S33E/K7E/H18D/V40D/A46D/Q55E.1d (designed binder)	5.7e+06 M⁻¹	0.00519 s⁻¹	29000 M⁻¹ s⁻¹	0.1 fold
